T1: cynomolgus monkey FcγRIIa1 extracellular domain, His-tagged (cynomolgus monkey)
T1 construct: also called cyno FcγRIIa1; cynoFcgRIIa1; not shown: C-terminal His-tag
T1 chain: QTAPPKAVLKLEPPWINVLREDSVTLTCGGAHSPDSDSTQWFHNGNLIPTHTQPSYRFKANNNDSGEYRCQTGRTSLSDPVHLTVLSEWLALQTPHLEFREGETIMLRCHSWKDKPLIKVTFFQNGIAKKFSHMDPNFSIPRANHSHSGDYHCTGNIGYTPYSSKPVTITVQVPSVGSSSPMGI

T2: cynomolgus monkey FcγRIIa2 extracellular domain, His-tagged (cynomolgus monkey)
T2 construct: also called cyno FcγRIIa2; cynoFcgRIIa2; not shown: C-terminal His-tag
T2 chain: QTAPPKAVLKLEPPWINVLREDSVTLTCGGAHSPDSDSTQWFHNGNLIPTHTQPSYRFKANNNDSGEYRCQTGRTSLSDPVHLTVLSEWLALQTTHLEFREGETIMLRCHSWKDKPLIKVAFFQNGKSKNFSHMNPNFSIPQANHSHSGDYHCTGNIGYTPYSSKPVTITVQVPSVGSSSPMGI

T3: cynomolgus monkey FcγRIIa3 extracellular domain, His-tagged (cynomolgus monkey)
T3 construct: also called cyno FcγRIIa3; cynoFcgRIIa3; not shown: C-terminal His-tag
T3 chain: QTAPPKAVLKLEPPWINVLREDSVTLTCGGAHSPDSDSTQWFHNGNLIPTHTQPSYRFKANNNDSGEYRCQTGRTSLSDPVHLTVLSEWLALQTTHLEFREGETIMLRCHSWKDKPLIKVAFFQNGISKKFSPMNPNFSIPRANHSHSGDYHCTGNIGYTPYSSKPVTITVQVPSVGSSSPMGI

T4: cynomolgus monkey FcγRIIb extracellular domain, His-tagged (cynomolgus monkey)
T4 construct: also called cyno FcγRIIb; cynoFcγRIIb; not shown: C-terminal His-tag
T4 chain: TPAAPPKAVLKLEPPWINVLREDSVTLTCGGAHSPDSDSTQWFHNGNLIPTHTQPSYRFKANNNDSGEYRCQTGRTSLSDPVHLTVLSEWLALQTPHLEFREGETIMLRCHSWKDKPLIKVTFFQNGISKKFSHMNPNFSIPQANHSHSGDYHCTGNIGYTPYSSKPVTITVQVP

T5: cynomolgus monkey FcγRIIIaS extracellular domain, His-tagged (cynomolgus monkey, UniProt Q8SPW2 21-206 at identity 1.00))
T5 construct: also called cyno FcγRIIIaS; cynoFcγRIIIaS; not shown: C-terminal His-tag
T5 chain: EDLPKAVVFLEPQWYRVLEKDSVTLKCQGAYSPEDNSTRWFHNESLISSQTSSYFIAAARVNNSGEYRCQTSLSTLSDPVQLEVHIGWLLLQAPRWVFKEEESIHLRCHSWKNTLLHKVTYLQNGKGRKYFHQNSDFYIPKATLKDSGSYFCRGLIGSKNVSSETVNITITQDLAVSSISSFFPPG

T6: human FcγRIIaH extracellular domain, His-tagged (human, UniProt P12318 34-217)
T6 construct: also called human FcγRIIa (type H); FcgRIIaH; not shown: C-terminal His-tag
T6 sequence: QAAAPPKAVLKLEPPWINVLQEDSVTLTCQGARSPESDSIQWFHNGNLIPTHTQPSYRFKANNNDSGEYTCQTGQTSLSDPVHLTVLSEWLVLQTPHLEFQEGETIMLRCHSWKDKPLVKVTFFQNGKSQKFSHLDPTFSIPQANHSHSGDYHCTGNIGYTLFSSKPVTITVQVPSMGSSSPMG

T7: human FcγRIIaR extracellular domain, His-tagged (human, UniProt P12318 34-217)
T7 construct: also called human FcγRIIa (type R); FcgRIIaR; not shown: C-terminal His-tag
T7 chain: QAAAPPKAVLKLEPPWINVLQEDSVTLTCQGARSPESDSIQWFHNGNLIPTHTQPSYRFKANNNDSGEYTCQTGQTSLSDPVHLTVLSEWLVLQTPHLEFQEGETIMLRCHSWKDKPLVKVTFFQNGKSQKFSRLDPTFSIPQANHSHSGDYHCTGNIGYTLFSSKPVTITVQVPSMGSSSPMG

T8: human FcγRIIb extracellular domain, His-tagged (human, UniProt P31994 43-217)
T8 construct: also called FcgRIIb (human); not shown: C-terminal His-tag
T8 sequence: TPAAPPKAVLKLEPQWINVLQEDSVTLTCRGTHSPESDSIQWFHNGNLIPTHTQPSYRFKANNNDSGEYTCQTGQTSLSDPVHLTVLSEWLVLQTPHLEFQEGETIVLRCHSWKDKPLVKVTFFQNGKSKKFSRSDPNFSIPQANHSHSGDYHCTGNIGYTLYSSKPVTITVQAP


How the values were obtained:
Assay in all cases: SPR (BIACORE), captured antibody, FcgR as analyte
[1] = target: T1, cynomolgus monkey FcγRIIa1 …
Experimental: (§1) The kinetic analysis of interactions between these antibodies and FcγR was carried out using BIACORE® T200 or BIACORE® 4000 (GE Healthcare). HBS-EP+ (GE Healthcare) was used as the running buffer, and the measurement temperature was set to 25° C. A chip produced by immobilizing Protein A. Protein A/G or mouse anti-human IgG kappa light chain (BD Biosciences) onto a Series S Sensor Chip CM4 or CM5 (GE Healthcare) by the amine-coupling method was used. […] After the measurement, the antibody captured on the chip was washed off by allowing reaction with 10 mM glycine-HCl, pH1.5 and 25 mM NaOH so that the chip was regenerated and used repeatedly. The sensorgrams obtained as measurement results were analyzed by the 1:1 Langmuir binding model using the BIACORE® Evaluation Software to calculate the binding rate constant ka (L/mol/s) and dissociation rate constant kd (l/s), and the dissociation constant KD (mol/L) was calculated from these values. […] Regarding such interactions, KD values were calculated using the following 1:1 binding model described in BIACORE® T100 Software Handbook BR1006-48 Edition AE.

[2] = target: T2, cynomolgus monkey FcγRIIa2 …
Experimental: as §1

[3] = target: T3, cynomolgus monkey FcγRIIa3 …
Experimental: as §1

[4] = target: T4, cynomolgus monkey FcγRIIb extracellular …
Experimental: as §1

[5] = target: T5, cynomolgus monkey FcγRIIIaS …
Experimental: as §1

[6] = target: T6, human FcγRIIaH extracellular domain, …
Experimental: as §1

[7] = target: T7, human FcγRIIaR extracellular domain, …
Experimental: as §1

[8] = target: T8, human FcγRIIb extracellular domain, …
Experimental: as §1

[9] = target: T9, human FcγRIIIaV extracellular domain, His-tagged (human, UniProt P08637 17-208)
T9 construct: also called FcgRIIIaV; not shown: C-terminal His-tag
T9 sequence (P08637 17-208 F176V): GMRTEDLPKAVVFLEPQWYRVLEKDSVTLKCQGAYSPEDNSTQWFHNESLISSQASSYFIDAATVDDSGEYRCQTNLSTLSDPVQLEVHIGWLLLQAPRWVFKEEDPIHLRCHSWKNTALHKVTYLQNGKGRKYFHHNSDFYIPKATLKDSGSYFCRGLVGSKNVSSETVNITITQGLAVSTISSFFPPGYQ
Experimental: as §1

| Binder | Kd [1] [µM] | Kd [2] [nM] | Kd [3] [µM] | Kd [4] [nM] | Kd [5] [nM] | Kd [6] [nM] | Kd [7] [nM] | Kd [8] [nM] | Kd [9] [µM] |
| --- | --- | --- | --- | --- | --- | --- | --- | --- | --- |
| M103205H795-MY453/M103202L889-SK1 (antibody, human IgG1, kappa, copies: 2 + 2) heavy: QVTLKESGPVLVKPTETLTLTCTVSGIDLSHDDISWVRQAPGKGLEWVGIISYAGSTYYASWAKGRLTISKDTSKNQVVLTMTNMDPVDTATYYCARGVPAYSHGGDLWGQGTLVTVSSASTKGPSVFPLAPSSKSTSGGTAALGCLVKDYFPEPVTVSWNSGALTSGVHTFPAVLQSSGLYSLSSVVTVPSSSLGTQTYICNVNHKPSNTKVDKKVEPKSCDKTHTCPPCPARELLTGPSVFLFPPKPKDTLMISRTPEVTCVVVDVSDEDPEVKFNWYVDGVEVHNAKTKPREEQYNSTYRVVSVLTVLHQDWLNGKEYKCKVSNKALPKPIEKTISKAKGQPREPQVYTLPPSREEMTKNQVSLTCLVKGFYPSDIAVEWESNGQPENNYKTTPPVLDSDGSFFLYSKLTVDKSRWQQGNVFSCSVMHEALHNHYTQKSLSLSP light: DIVMTQSPATLSLSPGERATLSCTSSQSVYHANWLSWFQQKPGQPPKLLIYWASTLAYGVPSRFSGSGSGTDFTLTISSLQPEDAATYYCAGGYGGGRYAFGQGTKVEIKRTVAAPSVFIFPPSDEQLKSGTASVVCLLNNFYPREAKVQWKVDNALQSGNSQESVTEQDSKDSTYSLSSTLTLSKADYEKHKVYACEVTHQGLSSPVTKSFNRGEC | 8.2 | 9900 | 21 | 2100 | 6500 | 750 | 1600 | 6500 | 14 |
| M103205H795-MY454/M103202L889-SK1 (antibody, human IgG1, kappa, copies: 2 + 2) heavy: QVTLKESGPVLVKPTETLTLTCTVSGIDLSHDDISWVRQAPGKGLEWVGIISYAGSTYYASWAKGRLTISKDTSKNQVVLTMTNMDPVDTATYYCARGVPAYSHGGDLWGQGTLVTVSSASTKGPSVFPLAPSSKSTSGGTAALGCLVKDYFPEPVTVSWNSGALTSGVHTFPAVLQSSGLYSLSSVVTVPSSSLGTQTYICNVNHKPSNTKVDKKVEPKSCDKTHTCPPCPASELLTGPSVFLFPPKPKDTLMISRTPEVTCVVVDVSDEDPEVKFNWYVDGVEVHNAKTKPREEQYNSTYRVVSVLTVLHQDWLNGKEYKCKVSNKALPKPIEKTISKAKGQPREPQVYTLPPSREEMTKNQVSLTCLVKGFYPSDIAVEWESNGQPENNYKTTPPVLDSDGSFFLYSKLTVDKSRWQQGNVFSCSVMHEALHNHYTQKSLSLSP light: DIVMTQSPATLSLSPGERATLSCTSSQSVYHANWLSWFQQKPGQPPKLLIYWASTLAYGVPSRFSGSGSGTDFTLTISSLQPEDAATYYCAGGYGGGRYAFGQGTKVEIKRTVAAPSVFIFPPSDEQLKSGTASVVCLLNNFYPREAKVQWKVDNALQSGNSQESVTEQDSKDSTYSLSSTLTLSKADYEKHKVYACEVTHQGLSSPVTKSFNRGEC | 3.8 | 3100 | 7.6 | 1000 | 2500 | 410 | 760 | 3100 | 5.9 |

Now those with a lower Kd [1], led by results:

| Kd [1] [µM] | Kd [2] [nM] | Kd [3] [µM] | Kd [4] [nM] | Kd [5] [nM] | Kd [6] [nM] | Kd [7] [nM] | Kd [8] [nM] | Kd [9] [µM] | Binder |
| --- | --- | --- | --- | --- | --- | --- | --- | --- | --- |
| 3.1 | 1900 | 5.4 | 920 | 2800 | 310 | 460 | 2200 | 6.8 | M103205H795-MY455/M103202L889-SK1 (antibody, human IgG1, kappa, copies: 2 + 2) heavy: QVTLKESGPVLVKPTETLTLTCTVSGIDLSHDDISWVRQAPGKGLEWVGIISYAGSTYYASWAKGRLTISKDTSKNQVVLTMTNMDPVDTATYYCARGVPAYSHGGDLWGQGTLVTVSSASTKGPSVFPLAPSSKSTSGGTAALGCLVKDYFPEPVTVSWNSGALTSGVHTFPAVLQSSGLYSLSSVVTVPSSSLGTQTYICNVNHKPSNTKVDKKVEPKSCDKTHTCPPCPATELLTGPSVFLFPPKPKDTLMISRTPEVTCVVVDVSDEDPEVKFNWYVDGVEVHNAKTKPREEQYNSTYRVVSVLTVLHQDWLNGKEYKCKVSNKALPKPIEKTISKAKGQPREPQVYTLPPSREEMTKNQVSLTCLVKGFYPSDIAVEWESNGQPENNYKTTPPVLDSDGSFFLYSKLTVDKSRWQQGNVFSCSVMHEALHNHYTQKSLSLSP light: DIVMTQSPATLSLSPGERATLSCTSSQSVYHANWLSWFQQKPGQPPKLLIYWASTLAYGVPSRFSGSGSGTDFTLTISSLQPEDAATYYCAGGYGGGRYAFGQGTKVEIKRTVAAPSVFIFPPSDEQLKSGTASVVCLLNNFYPREAKVQWKVDNALQSGNSQESVTEQDSKDSTYSLSSTLTLSKADYEKHKVYACEVTHQGLSSPVTKSFNRGEC |
| 1.9 | 1700 | 3.4 | 520 | 2000 | 170 | 290 | 1100 | 5.3 | M103205H795-MY456/M103202L889-SK1 (antibody, human IgG1, kappa, copies: 2 + 2) heavy: QVTLKESGPVLVKPTETLTLTCTVSGIDLSHDDISWVRQAPGKGLEWVGIISYAGSTYYASWAKGRLTISKDTSKNQVVLTMTNMDPVDTATYYCARGVPAYSHGGDLWGQGTLVTVSSASTKGPSVFPLAPSSKSTSGGTAALGCLVKDYFPEPVTVSWNSGALTSGVHTFPAVLQSSGLYSLSSVVTVPSSSLGTQTYICNVNHKPSNTKVDKKVEPKSCDKTHTCPPCPAVELLTGPSVFLFPPKPKDTLMISRTPEVTCVVVDVSDEDPEVKFNWYVDGVEVHNAKTKPREEQYNSTYRVVSVLTVLHQDWLNGKEYKCKVSNKALPKPIEKTISKAKGQPREPQVYTLPPSREEMTKNQVSLTCLVKGFYPSDIAVEWESNGQPENNYKTTPPVLDSDGSFFLYSKLTVDKSRWQQGNVFSCSVMHEALHNHYTQKSLSLSP light: DIVMTQSPATLSLSPGERATLSCTSSQSVYHANWLSWFQQKPGQPPKLLIYWASTLAYGVPSRFSGSGSGTDFTLTISSLQPEDAATYYCAGGYGGGRYAFGQGTKVEIKRTVAAPSVFIFPPSDEQLKSGTASVVCLLNNFYPREAKVQWKVDNALQSGNSQESVTEQDSKDSTYSLSSTLTLSKADYEKHKVYACEVTHQGLSSPVTKSFNRGEC |

Reference: patent US20200317768A1 (published 2020)
